In assay [1] the target is S267E/L328F variant of human IgG1 (human). Nature of the assay: SPR; Biacore; antibody variants captured on a CM5 chip with immobilised antigen peptide or protein A/G, FcγR injected; kinetic analysis by global fitting with a 1:1 Langmuir model (KD).
Assay [2] addresses V12 variant of human IgG1 (human). The assay is described as follows: SPR; KD for soluble hFcRn at pH 6.0; as described previously (Igawa et al., 2010).
Assay [3] deals with wild-type human IgG1 (human). Described as above.
Assay [4] addresses human FcγRIIa^H131, extracellular region (UniProt P12318). The assay is described as follows: binding screen of single-substitution variants (method not named in legend). The conditions noted are these: read off a plot.
Assay [5] has as its target human FcγRIIb, extracellular region (UniProt P31994). The description is as above. To be noted: read off a plot.
Assay [6] addresses human FcγRIIa^R131, extracellular region. Described as above. The conditions noted are these: read off a plot.

The record followed here is PMC3785249.

Chain of UniProt P12318 (P12318 34-217): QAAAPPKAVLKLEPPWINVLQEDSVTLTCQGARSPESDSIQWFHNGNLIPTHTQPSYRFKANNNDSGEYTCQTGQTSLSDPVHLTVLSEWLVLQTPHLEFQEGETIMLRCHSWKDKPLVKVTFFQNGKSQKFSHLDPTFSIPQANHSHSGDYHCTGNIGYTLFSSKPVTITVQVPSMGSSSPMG
Chain of UniProt P31994 (P31994 43-217): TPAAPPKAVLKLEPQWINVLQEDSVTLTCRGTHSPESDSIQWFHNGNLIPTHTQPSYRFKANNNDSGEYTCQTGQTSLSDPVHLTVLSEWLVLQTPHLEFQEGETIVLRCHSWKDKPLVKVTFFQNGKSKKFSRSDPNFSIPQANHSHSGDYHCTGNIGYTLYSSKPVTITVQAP

Substance “human FcγRIIa^R131, extracellular region (receptor)” had a fold increase in affinity over IgG1, KD (IgG1)/KD (Fc variant) in assay [1] of 864 fold.

As to “recombinant, soluble human FcRn (from UniProt P55899 24-297) (complex)”, the Kd amounted to 1.4 µM in assay [2] and 1.5 µM in assay [3].

For the substance wild-type human IgG1 L328E, the percent of parent (template antibody = 100) in assay [4] came out at 15; in assay [5], 180.

Take wild-type human IgG1 L328F: the percent of parent (template antibody = 100) in assay [4] is 53; in assay [6] it was 190; in assay [5], 300.

For wild-type human IgG1 P238D, the percent of parent (template antibody = 100) in assay [4] was found to be 2; in assay [6], 12; in assay [5] it was 210.

On to wild-type human IgG1 S267E, for which the percent of parent (template antibody = 100) came out at 100 in assay [4], 190 in assay [6] and 410 in assay [5].
